Laboratory results reported in the RNAGym collection of RNA variant scans (doi:10.1073/pnas.2313332121).

B1: TPR t1 (parent)
chain: GACCAAUCUGCCCUCAGAGCUCGAGAACAUCUUCGGAUGCAGAGGAGGCAGGCUUCGGUGGCGCGAUAGCGCCAACGUCCUCAACCUCCAAUGCAUCCCACCACAUGAUGAUGCCUGAAGAGCCUUGGUUUUUUG

Variants of: B1
Experiment: polymerase ribozyme fitness, log enrichment relative to wild type (log ratio); higher = more active; in vitro selection for triplet polymerase activity
Method in brief: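 To select mutant libraries of each subunit of a heterodimeric triplet polymerase ribozyme, built by PCR and transcribed, each was annealed with a biotinylated primer, partner subunit and triplets, then incubated frozen at −7 °C. Extended constructs were gel-excised, captured on streptavidin beads and amplified by RT-PCR, in one round carried out in triplicate. Illumina sequencing of input and output libraries kept genotypes with ≥10 input reads and ≥1 read per output. Fitness is the base-2 logarithm of genotype enrichment relative to wild-type enrichment, from inverse-variance-weighted replicate averages.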
With GACCAAUCUGCCCUCAGAGCUCGAGAACAUGUUCGGAUACAGAGGAGGCAGGCUUCGGUGGCGCGAUAGCGCCAACGUCCUCAACCUCCAAUGCAUCCCACCACAUCAUGAUGCCUGAAGAGCCUUGGUUUUGUG the “polymerase ribozyme fitness (log ratio)” value was -2.1.
In the case of GACCAAUCUGCCCUCAGAGCUCGAGAACAUGUUCGGAUGCAGAGGAGGCAGGCUUCGGUGGUGCGAUAGCGCCAACGUCCUCAGCCACCAAUUCAUCCCACCACAUGAUGAUGCCUGAAUAGCCUUGGUUUUUUG, the “polymerase ribozyme fitness (log ratio)” value is reported as -6.9.
For GACCAAUCUGCCCUCAGAGCUCGAGAACAUGUUCGGAUGCAGAGGAGGCAGGCUUCGGUGGCGCGAUAGCGCCAACGUCCUCAACCUCCAAUGCAUCCGACCACAUGAUGAUGCCUGAAGAGCCUUGGUUUUUUG, the “polymerase ribozyme fitness (log ratio)” value was -6.63.
With GACCAAUCUGCCCUCAGAGCUCGAGAACAUACUCGGAUGCAGAGGAGGCAGGCUUCGGUGGCGCGAUAGCGCCAACGUCCUCAACCUCCAAUGCAUCCCACCACAUGAUGAUGCCUGAAGAGGCUUGGUUUUUUG the “polymerase ribozyme fitness (log ratio)” value was -3.17.
In the case of GACCAAUCUGCCCUCAGAGCUCGAGAACAUUUUGGGAUGCAGAGGAGGCAGGGUUCGGUGGCGCGAUAGGGCCAACGUCCUCAACCUCCCAUGCAUCCCACCACAUGAUGAUGCCUGAAAAACAUUGGUUUUUUG, the “polymerase ribozyme fitness (log ratio)” value is reported as -7.98.
With GACCAAUCUGCCCUCAGAGCUCGAGAACAUUUUCGGAUGCAGAGGAGGCAGGCUUCGGUGGCGCGAUAGCGCAAACGUCCUCAACCUCCAAUGCCUCCCACCACAUGAUGAUGCCUGAAGAGCCUUGGUUUUUUG the “polymerase ribozyme fitness (log ratio)” value was -5.67.
In the case of GACCAAUCUGCCCUCAGAGCUCGAGAACAUGUUCGAAUGCAGAGGAGGCAGACUUUGGUGGCGCGAUAGCGCCAACGUCCUCAACCUCCAAUGCAUCCCACCACAUGAUGAUGCGUGAAGAGCCUUGGUUUUUUG, the “polymerase ribozyme fitness (log ratio)” value is reported as -7.46.
With GACCAAUCUGCCCUCAGAGCUCGAGAACAUUUUCGGAUGCAGAGGAGGUAGGCUUCGGUGGCGCGAUAGCGCCAACGUCCUCAACCUCCAAUGCAUCCCACCAUAUGAUGAUGCAUGAAGAGCCUUGGUUUUUUG the “polymerase ribozyme fitness (log ratio)” value was -4.23.
In the case of GACCAAUCUGCCCUCAGAGCUCGAGAACAUGUUCGGAUGCAGAGGAGGCCGGCUUCGGUGGCGCGAUAGCGCCAACGUCCUCAACCUCCAAUGCAUCCCACCACAUGAGGAUGCCUGAAGAGCCUUGGUUAUUUG, the “polymerase ribozyme fitness (log ratio)” value is reported as -4.54.
For GACCAAUCUGCCCUCAGAGCUCGAGAACAUUUUCGGAUGCAGAGGAGGCAGGCUUCGGUGGCGCGAUAGCGCCAACGUCCUCAACCUCCAAUGCAUCCCACCACAUGAUGAUGCAUGAAAAGCCUUGGUUUUUUG, the “polymerase ribozyme fitness (log ratio)” value was -4.78.
In the case of GACCAAUCUGCCCUCAGAGCUCGAGAACAUGUUCGGAUGCAUAGGAGGCAGGCUUCGGUGGCGCGAUAGCGGCAACGUCCUCAACCUCCAAUGCAUCUCACCACAUCAUGAUGCUUGAAGAGCCUUGGUUUUUUG, the “polymerase ribozyme fitness (log ratio)” value is reported as -6.04.
For GACCAAUCUGCCCUCAGAGCUCGAGAACAUGUUGGGAUGCAGAGGAGGCAGGCUUCGGUGGCGCGAUAGCGCCAACGUCCUCAACCUCCAAUGCAUACCACAACAUGAUGAUACCUGAAGAGCCUUGGUUUUUUG, the “polymerase ribozyme fitness (log ratio)” value was -6.66.
For GACCAAUCUGCCCUCAGAGCUCGAGAACAUGUUCGGAUGCAGAGGAGGCAGGCUUCGGUGGCGCGAUAGCGCCAACGUCCUCAACCUGCAAUGCAUCCCACCACAUGAUAAUGCCUGAAGAGCCUGGGUUUUUUG, the “polymerase ribozyme fitness (log ratio)” value was -6.03.
In the case of GACCAAUCUGCCCUCAGAGCUCGAGAACAUGUUCGGUUGCAGAGGAGGCAGGCUUCGGUGGCGCGAUAGCGCCAACGUCCUCAACCUCCAAUGCAUACCACCACAUGAUGAUGCCGGAAGAGCCUUGGUUUUUUG, the “polymerase ribozyme fitness (log ratio)” value is reported as -7.62.
In the case of GACCAAUCUGCCCUCAGAGCUCGAGAACAUGUUCGGAUGCAGAGGAGGCAGGCUUCACUGGCACGAUAGCGCCAACGUCCUCAACCUCCAAUGCAUCCCACCACAUGAUGACGCCUGAAGAGCCUUGGUUUUUUG, the “polymerase ribozyme fitness (log ratio)” value is reported as -7.16.
In the case of GACCAAUCUGCCCUCAGAGCUCGAGAACAUUUUCGGAUGCAGAGGAGGGAGGCUUCGGUGGCUCGAUAGCGCCACCGUCCUCAACCUCCAAUGCAUCCCACCACAUGAUGAUGCCUGAAGAGCCUUGGUUUUUUG, the “polymerase ribozyme fitness (log ratio)” value is reported as -6.11.
In the case of GACCAAUCUGCCCUCAGAGCUCGAGAACAUAUUCGGAUGCAGAGGAGGCAGGCUUCGGUGGCUCGAUAGCGCCAACGUCCUCAACCUGCAAUGCAUCCCACCACAUGAUGAUGCCUGAAGUGCCUUGGUUUUUUG, the “polymerase ribozyme fitness (log ratio)” value is reported as -6.64.
With GACCAAUCUGCCCUCAGAGCUCGAGAACAUGUUCGGAUGCAGAGGAAGCAGGCUUCGGUGGCGCGAUAGCGCCAACGUCGUCAACCUCCAAUGCAUCCCACCACAUGAUGAUGCUUGAAGAGCCUAGGUUUUUUG the “polymerase ribozyme fitness (log ratio)” value was -8.
In the case of GACCAAUCUGCCCUCAGAGCUCGAGAACAUUUUCGGAUGCAGAGGUGGCAGGCUUCGGUGGCGCGAUAGCGCCAACGUCCUCAAUCUCCAAUGCAUCCCACCACAUGAUGAUGCCUGAAGAGCCUUGGUUUUUUG, the “polymerase ribozyme fitness (log ratio)” value is reported as -7.42.
With GACCAAUCUGCCCUCAGAGCUCGAGAACAUGUUCGGAUGCAGAGGAGGCCGGCUUCGGUGGCGCGAUAGCGCCAACGUCCUCAACCUCCAAUGCAUCCCACCACAUGAUGAAGCCUGAAGAGCCUUGGUUUUUUG the “polymerase ribozyme fitness (log ratio)” value was -6.45.
For GACCAAUCUGCCCUCAGAGCUCGAGAACAUUUUCGGAUGCAGAGGAGGCAGGCUUCGGUGGCGCGAUAGCGCCAACGUCCUCAACCUCCAAUGCAUCCCACCACAUGAUGAUGCCUGAAGAGGCUUAGUUUUUUG, the “polymerase ribozyme fitness (log ratio)” value was -4.45.
In the case of GACCAAUCUGCCCUCAGAGCUCGAGAACAUAUUCGGAUGCAGAGGAGGCAGGCUUCGGUGGCGCGAUAGCGCCAACGUCCUCAACCUCCAAUGCAUCCCACCACAUCAUGAUGCCUGAAGAGCCUUGGUUUUUUG, the “polymerase ribozyme fitness (log ratio)” value is reported as -4.91.
With GACCAAUCUGCCCUCAGAGCUCGAGAACAUUUUCGGAUGCAGAGGAGGCAGGCUUCGGUGGCGCGAUAGCGCCAACGUCCUCAACCUCCAAUGCAUCCCACCACAUGAUGAUGCCUGAAGAGACUUGGUUUUUUG the “polymerase ribozyme fitness (log ratio)” value was -4.45.
In the case of GACCAAUCUGCCCUCAGAGCUCGAGAACAUUUUCGGAUGCAGAGGAGGCAGGCUUCGGUGGCGCGAUAGCGCCAACGUCCUAAACCUCCAAUGCAUCCCACCACAUGAUGAUGCCUGAAGAGCCUUGGUUUUUUG, the “polymerase ribozyme fitness (log ratio)” value is reported as -5.41.
With GACCAAUCUGCCCUCAGAGCUCGAGAACAUUUUCGGAUGCAGAGGAGGCAGGCUUCGGUGGCGCGAUAGCGUCAACGUCCUCAACCUCCAAUGCAUCCCACCACAUGAUGAAGCCUGAAGAGCCUUGGUUUUUUG the “polymerase ribozyme fitness (log ratio)” value was -3.81.
With GACCAAUCUGCCCUCAGAGCUCGAGAACAUGUUCGGAUGCAGAGGAGGCAGGCUUCGGUGGCGCGAUAGCGCCAACGUCCUCAACCUCCAAUGCAUCCCACCACAUGAUGUUGUCUGAAGAGCCUUGGUUUUUUG the “polymerase ribozyme fitness (log ratio)” value was -6.64.
With GACCAAUCUGCCCUCAGAGCUCGAGAACAUGUUCGGAUGCAGAGGAGGCAGGCUUCGGUGGCGCGAUAGCGCCAACGUCCUCAACCUACAAUGCAUCCCACCACAUGAUUAUGCAUGAAGAGCCUUGGUUUUUUG the “polymerase ribozyme fitness (log ratio)” value was -7.42.
For GACCAAUCUGCCCUCAGAGCUCGAGAACAUAUUCGGAUGCAGAGGAGGCAGGCCUCGGUGGCGCGAUAGCGCCAACGUCCUCAACCUCCAAUGCAACCCACCACAUGAUGGUGCCUGAAGAGCCUUGGUUUUUUG, the “polymerase ribozyme fitness (log ratio)” value was -5.95.
With GACCAAUCUGCCCUCAGAGCUCGAGAACAUUUUCGGAUGCAGAGGAGGCAGGCUUCGGUGGCGCGAUAGCGCCAACGUCCUCAACUUCCAAUGCAUCCCACCACAUGAUGAUGCCUGAAGAGCCUUGGUUUUUUG the “polymerase ribozyme fitness (log ratio)” value was -4.08.
For GACCAAUCUGCCCUCAGAGCUCGAGAACAUGUUCGGAUGCAGAGGAGGCAGGCUUCGGUGGCGCGAUAGCGCCAACGUCCUCAACCUCCAAUGCAUCCCACCACAUGAUGAUGCCUGAAGAGCGUUGGUUUUUUG, the “polymerase ribozyme fitness (log ratio)” value was -6.98.
In the case of GACCAAUCUGCCCUCAGAGCUCGAGAACAUUUUCGGAUGCAGAGGAGGCAGGCUUCGGUGGCGCGCUAGCGCCAACGGCCUCAACCUCCAAUGCAUCCCACCACAAGAUGAUGCCUGAAGAGACUUGGUUUUUUG, the “polymerase ribozyme fitness (log ratio)” value is reported as -2.21.
With GACCAAUCUGCCCUCAGAGCUCGAGAACAUAUUCGGAUGCAGAGGAGGCAGGCUUCGGUGGCGCGAUAGCGCCAACGUCCCCAACCUCCAAUGCAUCCCACCACAUGAUGAUGCCUGAAGAGCAUUGGUUUUUUG the “polymerase ribozyme fitness (log ratio)” value was -5.14.
For GACCAAUCUGCCCUCAGAGCUCGAGAACAUUUUCGGAUGCAGAGGAGGCAGGCUUCGGUGGCGCGAUAGCGCCAACGUCCUCAACCUCCAAUGCAUCCCACCACAUGAUGAUGCCUGAGGAGCCUUGGUUUUUUG, the “polymerase ribozyme fitness (log ratio)” value was -3.71.
In the case of GACCAAUCUGCCCUCAGAGCUCGAGAACAUUUUCGGAUGCAGAGGCGGCAGGCUUCGGUGGCGCGAUAGCGCCAACGUCCUCAACCUCCAAUGCAUCCCACCACAUGAUGAUUCCUGAGGAGCCUUGGUUUUUUG, the “polymerase ribozyme fitness (log ratio)” value is reported as -5.51.
In the case of GACCAAUCUGCCCUCAGAGCUCGAGAACAUAUUCGGAUGCAGAGGAGGCAGGCUUCGGUGGCGCGAUAGCGCCAACGUCCUCAACCUGCAAUGCAUCCCACCACAUGAUGAUGCCUGAAGAGCCUUGGUUUUUUG, the “polymerase ribozyme fitness (log ratio)” value is reported as -4.98.
With GACCAAUCUGCCCUCAGAGCUCGAGAACAUUUUCGGAUGCAGAGGAGGCAGGUUUCGGUGGCGCGAUAGCGCCAACGUCCUCAACCUCCAAUGCAUCCCACCACAUGAUGAUGCCUGAAGAGCCUUGGUUUUUUG the “polymerase ribozyme fitness (log ratio)” value was -4.91.
With GACCAAUCUGCCCUCAGAGCUCGAGAACAUAUUCGCAUGCAGAGGAGGCAGGCUUCGGUCGCGCGAUAGCGGCAACGUCCUCAACCUCCAAUGCAUCAAACCACAUGAUGAUGCCUGAAGAGCUUUGUUUUUUUG the “polymerase ribozyme fitness (log ratio)” value was -7.42.
With GACCAAUCUGCCCUCAGAGCUCGAGAACAUUUUCGGAUGCAGAGGAGGCAGGCUUCGGUGGCGCGAUAGCGGCAACGUCCUCAACCUCCAAUGCAUCCCACCACAUGAUGAUGCCUGAAGAGCCUUGGUUUUUUG the “polymerase ribozyme fitness (log ratio)” value was -4.16.
With GACCAAUCUGCCCUCAGAGCUCGAGAACAUGUUCCGAUGCAGGGGAGGCAGGCUUCGGUGGCGCGAUAGCGCCAACGUCCUCAACCUCCAAUGCAUCCCACCACAUGAUCAUGCCUGAAGAGCCUUGGUUUUUUG the “polymerase ribozyme fitness (log ratio)” value was -7.68.
In the case of GACCAAUCUGCCCUCAGAGCUCGAGAACAUAUUCGGAUGCAGAUGAGGCAGGCUUCGGUGGCGCGAUAGCGCCAACGUCCUCAACCUCCAAUGCAUCCCAUCACAUGAUGAUGCCUGAAGAGCGUUGGUUUUUUG, the “polymerase ribozyme fitness (log ratio)” value is reported as -5.62.
With GACCAAUCUGCCCUCAGAGCUCGAGAACAUGUUCGGAUGCUGAGGAGGCAGGCUGCGGUGUCGCGAUAGCGCCAACGUCCUCAACUUCCAAUCCAUCCCACUACAUGAUGAUCCCUGAAGAGCCUUGGUUUUUUG the “polymerase ribozyme fitness (log ratio)” value was -6.73.
In the case of GACCAAUCUGCCCUCAGAGCUCGAGAACAUUUUCGGAUGCAGAGGAGGCUGGUUUCGGUGGCGCGAUAGCGUCAACGUCCUCAACCUCCAAUACAUCCCACCACAUGAUGAUGCCUGAAGAGCUUUGGUUUUUUG, the “polymerase ribozyme fitness (log ratio)” value is reported as -7.15.
